Data taken from article PMC4993455.

Assays:
[1] = biological target: recombinant human methionine adenosyltransferase α2 (MATα2) (human) (UniProt P31153)
[2] = biological target: recombinant methionine adenosyltransferase α1 (MATα1) (rat) (UniProt P13444)
Chain of recombinant methionine adenosyltransferase α1 (MATα1) (rat) (P13444 whole entry): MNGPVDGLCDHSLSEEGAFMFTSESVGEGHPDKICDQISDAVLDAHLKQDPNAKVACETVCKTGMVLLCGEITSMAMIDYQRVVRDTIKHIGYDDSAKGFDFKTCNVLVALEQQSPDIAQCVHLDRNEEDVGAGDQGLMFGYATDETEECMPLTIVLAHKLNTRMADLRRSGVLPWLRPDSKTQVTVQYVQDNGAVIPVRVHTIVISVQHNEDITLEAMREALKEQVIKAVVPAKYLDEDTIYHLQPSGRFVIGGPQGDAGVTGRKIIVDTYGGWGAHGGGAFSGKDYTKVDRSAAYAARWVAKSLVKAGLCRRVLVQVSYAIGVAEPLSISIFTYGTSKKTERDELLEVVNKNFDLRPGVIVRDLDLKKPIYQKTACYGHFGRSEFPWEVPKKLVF

Chain of recombinant PDRG1 (tag excised) (Q642A0 whole entry): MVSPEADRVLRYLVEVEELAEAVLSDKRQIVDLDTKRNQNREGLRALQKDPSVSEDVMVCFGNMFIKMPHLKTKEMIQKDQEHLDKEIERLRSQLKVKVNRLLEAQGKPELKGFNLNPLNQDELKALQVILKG
Chain of recombinant human methionine adenosyltransferase α2 (MATα2) (human) (P31153 whole entry): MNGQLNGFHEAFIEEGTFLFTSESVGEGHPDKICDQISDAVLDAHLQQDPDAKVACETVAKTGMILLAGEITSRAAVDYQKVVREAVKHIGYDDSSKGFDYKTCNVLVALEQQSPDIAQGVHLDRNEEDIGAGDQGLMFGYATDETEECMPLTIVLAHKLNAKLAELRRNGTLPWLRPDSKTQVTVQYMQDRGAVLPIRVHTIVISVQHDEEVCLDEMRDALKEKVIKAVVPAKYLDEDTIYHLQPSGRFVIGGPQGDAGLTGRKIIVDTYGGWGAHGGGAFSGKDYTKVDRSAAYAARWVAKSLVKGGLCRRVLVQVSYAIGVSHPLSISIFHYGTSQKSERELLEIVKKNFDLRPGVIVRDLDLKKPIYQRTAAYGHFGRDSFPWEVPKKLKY

- IC50 of PDRG1 on S-adenosylmethionine synthesis by purified recombinant MATα2 homo-oligomers (0.7 μM) [1]: 3.79 µM
- reduction in AdoMet synthesis by MATα2 homo-oligomers (0.7 μM) with increasing concentrations of PDRG1 [1]: < 50%
- IC50 of PDRG1 (0–5.6 μM) on S-adenosylmethionine synthesis by purified recombinant MATα1 homo-oligomers (0.7 μM) [2]: 3.34 µM
- reduction in AdoMet synthesis by MATα1 homo-oligomers (0.7 μM) with increasing concentrations of PDRG1 (0–5.6 μM) [2]: < 50%
Substance: recombinant PDRG1 (tag excised) (from UniProt Q642A0 1-133) (natural protein)
